B1: Mevalonate kinase (Homo sapiens), Q03426 (parent)
chain: MLSEVLLVSAPGKVILHGEHAVVHGKVALAVSLNLRTFLRLQPHSNGKVDLSLPNIGIKRAWDVARLQSLDTSFLEQGDVTTPTSEQVEKLKEVAGLPDDCAVTERLAVLAFLYLYLSICRKQRALPSLDIVVWSELPPGAGLGSSAAYSVCLAAALLTVCEEIPNPLKDGDCVNRWTKEDLELINKWAFQGERMIHGNPSGVDNAVSTWGGALRYHQGKISSLKRSPALQILLTNTKVPRNTRALVAGVRNRLLKFPEIVAPLLTSIDAISLECERVLGEMGEAPAPEQYLVLEELIDMNQHHLNALGVGHASLDQLCQVTRARGLHSKLTGAGGGGCGITLLKPGLEQPEVEATKQALTSCGFDCLETSIGAPGVSIHSATSLDSRVQQALDGL
B2: Protein DDI1 homolog 1 (Homo sapiens), Q8WTU0 (parent)
chain: MLITVYCVRRDLSEVTFSLQVSPDFELRNFKVLCEAESRVPVEEIQIIHMERLLIEDHCSLGSYGLKDGDIVVLLQKDNVGPRAPGRAPNQPRVDFSGIAVPGTSSSRPQHPGQQQQRTPAAQRSQGLASGEKVAGLQGLGSPALIRSMLLSNPHDLSLLKERNPPLAEALLSGSLETFSQVLMEQQREKALREQERLRLYTADPLDREAQAKIEEEIRQQNIEENMNIAIEEAPESFGQVTMLYINCKVNGHPLKAFVDSGAQMTIMSQACAERCNIMRLVDRRWAGVAKGVGTQRIIGRVHLAQIQIEGDFLQCSFSILEDQPMDMLLGLDMLRRHQCSIDLKKNVLVIGTTGTQTYFLPEGELPLCSRMVSGQDESSDKEITHSVMDSGRKEH
partner: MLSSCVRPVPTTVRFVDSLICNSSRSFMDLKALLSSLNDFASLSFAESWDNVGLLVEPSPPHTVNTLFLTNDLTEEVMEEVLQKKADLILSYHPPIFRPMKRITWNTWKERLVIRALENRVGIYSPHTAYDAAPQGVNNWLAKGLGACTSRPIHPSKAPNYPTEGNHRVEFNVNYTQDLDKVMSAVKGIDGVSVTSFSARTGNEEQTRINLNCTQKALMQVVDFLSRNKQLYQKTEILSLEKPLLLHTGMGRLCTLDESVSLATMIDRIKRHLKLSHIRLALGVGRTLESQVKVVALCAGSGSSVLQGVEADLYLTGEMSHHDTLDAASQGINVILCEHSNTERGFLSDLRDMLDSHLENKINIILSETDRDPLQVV
B3: Tetratricopeptide repeat protein 14 (Homo sapiens), Q96N46 (parent)
chain: MDRDLLRQSLNCHGSSLLSLLRSEQQDNPHFRSLLGSAAEPARGPPPQHPLQGRKEKRVDNIEIQKFISKKADLLFALSWKSDAPATSEINEDSEDHYAIMPPLEQFMEIPSMDRRELFFRDIERGDIVIGRISSIREFGFFMVLICLGSGIMRDIAHLEITALCPLRDVPSHSNHGDPLSYYQTGDIIRAGIKDIDRYHEKLAVSLYSSSLPPHLSGIKLGVISSEELPLYYRRSVELNSNSLESYENVMQSSLGFVNPGVVEFLLEKLGIDESNPPSLMRGLQSKNFSEDDFASALRKKQSASWALKCVKIGVDYFKVGRHVDAMNEYNKALEIDKQNVEALVARGALYATKGSLNKAIEDFELALENCPTHRNARKYLCQTLVERGGQLEEEEKFLNAESYYKKALALDETFKDAEDALQKLHKYMQKSLELREKQAEKEEKQKTKKIETSAEKLRKLLKEEKRLKKKRRKSTSSSSVSSADESVSSSSSSSSSGHKRHKKHKRNRSESSRSSRRHSSRASSNQIDQNRKDECYPVPANTSASFLNHKQEVEKLLGKQDRLQYEKTQIKEKDRCPLSSSSLEIPDDFGGRSEDPRDFYNSYKTQAGSSKTEKPYKSERHFSSRRNSSDSFCRNSEDKIYGYRRFEKDIEGRKEHYRRWEPGSVRHSTSPASSEYSWKSVEKYKKYAHSGSRDFSRHEQRYRLNTNQGEYEREDNYGEDIKTEVPEEDALSSKEHSESSVKKNLPQNLLNIFNQIAEFEKEKGNKSKN
B4: Notch homolog 2 N-terminal-like protein A (Homo sapiens), Q7Z3S9 (parent)
chain: MCVTYHNGTGYCKCPEGFLGEYCQHRDPCEKNRCQNGGTCVAQAMLGKATCRCASGFTGEDCQYSTSHPCFVSRPCLNGGTCHMLSRDTYECTCQVGFTGKECQWTDACLSHPCANGSTCTTVANQFSCKCLTGFTGQKCETDVNECDIPGHCQHGGTCLNLPGSYQCQCLQGFTGQYCDSLYVPCAPSPCVNGGTCRQTGDFTFECNCLPETVRRGTELWERDREVWNGKEHDEN
partner: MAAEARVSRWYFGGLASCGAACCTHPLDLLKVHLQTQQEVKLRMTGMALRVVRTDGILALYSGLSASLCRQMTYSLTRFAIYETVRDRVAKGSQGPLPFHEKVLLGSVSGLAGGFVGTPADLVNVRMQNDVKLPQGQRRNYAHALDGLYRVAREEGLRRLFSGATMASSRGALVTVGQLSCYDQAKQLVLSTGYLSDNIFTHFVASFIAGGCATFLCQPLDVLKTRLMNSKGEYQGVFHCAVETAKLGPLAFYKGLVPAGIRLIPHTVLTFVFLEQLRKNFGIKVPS
B5: Protein boule-like (Homo sapiens), Q8N9W6 (parent)
chain: MQTDSLSPSPNPVSPVPLNNPTSAPRYGTVIPNRIFVGGIDFKTNESDLRKFFSQYGSVKEVKIVNDRAGVSKGYGFVTFETQEDAQKILQEAEKLNYKDKKLNIGPAIRKQQVGIPRSSIMPAAGTMYLTTSTGYPYTYHNGVAYFHTPEVTSVPPPWPSRSVCSSPVMVAQPIYQQPAYHYQATTQYLPGQWQWSVPQPSASSAPFLYLQPSEVIYQPVEIAQDGGCVPPPLSLMETSVPEPYSDHGVQATYHQVYAPSAITMPAPVMQPEPIKTVWSIHY
partner: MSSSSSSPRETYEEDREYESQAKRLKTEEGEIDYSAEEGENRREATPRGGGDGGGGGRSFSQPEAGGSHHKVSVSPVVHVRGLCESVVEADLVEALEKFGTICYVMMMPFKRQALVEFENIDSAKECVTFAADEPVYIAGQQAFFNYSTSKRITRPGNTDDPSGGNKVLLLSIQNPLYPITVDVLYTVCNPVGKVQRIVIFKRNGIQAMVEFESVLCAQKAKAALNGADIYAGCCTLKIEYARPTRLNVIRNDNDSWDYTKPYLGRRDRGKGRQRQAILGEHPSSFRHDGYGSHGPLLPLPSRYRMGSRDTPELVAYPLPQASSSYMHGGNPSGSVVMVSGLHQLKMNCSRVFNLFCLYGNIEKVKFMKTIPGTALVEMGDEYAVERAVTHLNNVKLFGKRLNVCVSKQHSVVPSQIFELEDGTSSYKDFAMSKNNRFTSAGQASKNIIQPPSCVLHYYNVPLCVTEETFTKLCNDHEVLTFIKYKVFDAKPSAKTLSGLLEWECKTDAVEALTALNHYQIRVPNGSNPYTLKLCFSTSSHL
B6: Charged multivesicular body protein 4a (Homo sapiens), Q9BY43 (parent)
chain: MSGLGRLFGKGKKEKGPTPEEAIQKLKETEKILIKKQEFLEQKIQQELQTAKKYGTKNKRAALQALRRKKRFEQQLAQTDGTLSTLEFQREAIENATTNAEVLRTMELAAQSMKKAYQDMDIDKVDELMTDITEQQEVAQQISDAISRPMGFGDDVDEDELLEELEELEQEELAQELLNVGDKEEEPSVKLPSVPSTHLPAGPAPKVDEDEEALKQLAEWVS
partner: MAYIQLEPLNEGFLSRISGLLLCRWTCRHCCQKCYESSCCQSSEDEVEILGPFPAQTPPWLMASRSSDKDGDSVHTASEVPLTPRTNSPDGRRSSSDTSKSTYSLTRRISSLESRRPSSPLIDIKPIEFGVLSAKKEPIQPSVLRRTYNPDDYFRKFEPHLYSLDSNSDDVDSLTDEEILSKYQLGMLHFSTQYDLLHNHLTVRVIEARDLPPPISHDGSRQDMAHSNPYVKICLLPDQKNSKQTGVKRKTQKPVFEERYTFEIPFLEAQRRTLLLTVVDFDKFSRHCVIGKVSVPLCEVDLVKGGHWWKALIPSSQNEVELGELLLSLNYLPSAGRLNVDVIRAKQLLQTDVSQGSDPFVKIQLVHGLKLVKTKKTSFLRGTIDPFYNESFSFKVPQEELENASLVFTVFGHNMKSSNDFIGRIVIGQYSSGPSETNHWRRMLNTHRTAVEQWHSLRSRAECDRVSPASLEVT
B7: Microtubule-associated tumor suppressor candidate 2 (Homo sapiens), Q5JR59-3 (parent)
chain: MGHCCCKPYNCLQCLDKTNESALVKEKELSIELANIRDEVAFHTAKCEKLQKEKEELERRFEDEVKRLGWQQQAELQELEERLQLQFEAEMARLQEEHGDQLLSIRCQHQEQVEDLTASHDAALLEMENNHTVAITILQDDHDHKVQELMSTHELEKKELEENFEKLRLSLQDQVDTLTFQSQSLRDRARRFEEALRKNTEEQLEIALAPYQHLEEDMKSLKQVLEMKNQQIHEQEKKILELEKLAEKNIILEEKIQVLQQQNEDLKARIDQNTVVTRQLSEENANLQEYVEKETQEKKRLSRTNEELLWKLQTGDPTSPIKLSPTSPVYRGSSSGPSSPARVSTTPR
partner: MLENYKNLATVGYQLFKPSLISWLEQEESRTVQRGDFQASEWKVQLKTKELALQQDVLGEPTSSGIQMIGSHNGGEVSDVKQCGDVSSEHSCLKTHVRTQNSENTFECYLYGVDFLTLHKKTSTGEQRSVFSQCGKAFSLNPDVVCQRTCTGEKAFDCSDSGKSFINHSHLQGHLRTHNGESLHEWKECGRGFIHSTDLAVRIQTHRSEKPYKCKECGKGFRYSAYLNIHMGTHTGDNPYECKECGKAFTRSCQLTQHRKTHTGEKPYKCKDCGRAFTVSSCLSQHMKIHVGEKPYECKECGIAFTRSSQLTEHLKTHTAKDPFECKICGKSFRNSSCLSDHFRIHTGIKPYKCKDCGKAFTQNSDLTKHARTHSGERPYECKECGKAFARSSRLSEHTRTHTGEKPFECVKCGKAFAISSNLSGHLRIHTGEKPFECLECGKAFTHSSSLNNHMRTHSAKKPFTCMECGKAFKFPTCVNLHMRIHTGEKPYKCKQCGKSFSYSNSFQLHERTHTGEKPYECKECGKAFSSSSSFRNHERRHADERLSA
B8: Tektin-4 (Homo sapiens), Q8WW24 (parent)
chain: MAQTVPPCELPCKEYDVARNTGAYTSSGLATASFRTSKYLLEEWFQNCYARYHQAFADRDQSERQRHESQQLATETQALAQRTQQDSTRTVGERLQDTHSWKSELQREMEALAAETNLLLAQKQRLERALDATEVPFSITTDNLQCRERREHPNLVRDHVETELLKEAELIRNIQELLKRTIMQAVSQIRLNREHKETCEMDWSDKMEAYNIDETCGRHHSQSTEVQAHPYSTTFQESASTPETRAKFTQDNLCRAQRERLASANLRVLVDCILRDTSEDLRLQCDAVNLAFGRRCEELEDARYKLHHHLHKTLREITDQEHNVAALKQAIKDKEAPLHVAQTRLYLRSHRPNMELCRDAAQFRLLSEVEELNMSLTALREKLLEAEQSLRNLEDIHMSLEKDIAAMTNSLFIDRQKCMAHRTRYPTILQLAGYQ

Variants of: B1
Conditions: with ews_human EWSR1, Q01844
Chain of ews_human EWSR1, Q01844 (Q01844 whole entry): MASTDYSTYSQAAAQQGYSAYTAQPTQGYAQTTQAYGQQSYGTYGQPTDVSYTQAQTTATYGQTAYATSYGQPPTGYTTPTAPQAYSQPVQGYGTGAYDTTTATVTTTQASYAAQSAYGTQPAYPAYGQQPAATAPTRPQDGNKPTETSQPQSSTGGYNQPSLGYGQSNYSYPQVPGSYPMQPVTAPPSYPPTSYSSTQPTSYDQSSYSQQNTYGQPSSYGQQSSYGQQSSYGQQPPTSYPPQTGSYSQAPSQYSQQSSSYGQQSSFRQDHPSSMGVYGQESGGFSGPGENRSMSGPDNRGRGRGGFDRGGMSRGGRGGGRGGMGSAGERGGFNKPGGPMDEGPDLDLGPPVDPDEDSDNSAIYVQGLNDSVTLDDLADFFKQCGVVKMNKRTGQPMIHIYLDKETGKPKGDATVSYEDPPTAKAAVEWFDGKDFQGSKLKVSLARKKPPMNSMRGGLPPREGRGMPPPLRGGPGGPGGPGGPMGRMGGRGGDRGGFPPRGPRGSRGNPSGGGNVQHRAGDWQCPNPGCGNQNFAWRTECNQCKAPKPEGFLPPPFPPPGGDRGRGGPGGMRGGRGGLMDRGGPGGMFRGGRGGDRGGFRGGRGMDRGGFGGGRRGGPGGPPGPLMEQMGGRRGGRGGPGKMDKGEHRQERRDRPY

| effect of a mutation on the interaction | Variant |
| --- | --- |
| with no effect | H20Q |

Variants of: B2
Conditions: with nif3l_human NIF3L1, Q9GZT8

| effect of a mutation on the interaction | Variant |
| --- | --- |
| with no effect | S63A |
| with no effect | R87C |
| with no effect | G136S |
| with no effect | R208G |
| with no effect | N228T |
| with no effect | D323N |

Variants of: B3
Conditions: with cep70_human CEP70, Q8NHQ1
Chain of cep70_human CEP70, Q8NHQ1 (Q8NHQ1 whole entry): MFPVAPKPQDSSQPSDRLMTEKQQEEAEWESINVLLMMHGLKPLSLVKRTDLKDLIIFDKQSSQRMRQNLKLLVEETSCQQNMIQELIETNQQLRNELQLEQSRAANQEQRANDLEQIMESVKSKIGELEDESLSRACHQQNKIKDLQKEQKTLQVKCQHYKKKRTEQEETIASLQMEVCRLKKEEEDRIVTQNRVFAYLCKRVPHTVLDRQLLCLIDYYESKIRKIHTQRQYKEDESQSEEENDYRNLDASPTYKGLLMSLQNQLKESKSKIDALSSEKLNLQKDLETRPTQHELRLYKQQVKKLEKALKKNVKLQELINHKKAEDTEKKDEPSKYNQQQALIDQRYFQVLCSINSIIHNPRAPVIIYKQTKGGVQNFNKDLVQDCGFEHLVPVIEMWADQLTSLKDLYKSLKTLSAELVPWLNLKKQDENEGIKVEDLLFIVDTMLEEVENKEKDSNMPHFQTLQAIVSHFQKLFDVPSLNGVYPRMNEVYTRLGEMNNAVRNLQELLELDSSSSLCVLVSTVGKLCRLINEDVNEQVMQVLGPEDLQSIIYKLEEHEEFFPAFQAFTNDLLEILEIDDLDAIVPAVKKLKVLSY

| effect of a mutation on the interaction | Variant |
| --- | --- |
| with no effect | E486Q |
| with no effect | S697G |

Variants of: B4
Conditions: with dic_human SLC25A10, Q9UBX3

| effect of a mutation on the interaction | Variant |
| --- | --- |
| with no effect | R74Q |
| with no effect | A115T |

Variants of: B5
Conditions: with hnrll_human HNRNPLL

| effect of a mutation on the interaction | Variant |
| --- | --- |
| with no effect | S9Y |
| with no effect | V78I |
| with no effect | M270I |

Variants of: B6
Conditions: with syt17_human SYT17, Q9BSW7

| effect of a mutation on the interaction | Variant |
| --- | --- |
| with no effect | G153R |

Variants of: B7
Conditions: with zn266_human ZNF266, Q14584

| effect of a mutation on the interaction | Variant |
| --- | --- |
| with no effect | A89V |

Variants of: B8
Conditions: with trip6_human TRIP6, Q15654
Chain of trip6_human TRIP6, Q15654 (Q15654 whole entry): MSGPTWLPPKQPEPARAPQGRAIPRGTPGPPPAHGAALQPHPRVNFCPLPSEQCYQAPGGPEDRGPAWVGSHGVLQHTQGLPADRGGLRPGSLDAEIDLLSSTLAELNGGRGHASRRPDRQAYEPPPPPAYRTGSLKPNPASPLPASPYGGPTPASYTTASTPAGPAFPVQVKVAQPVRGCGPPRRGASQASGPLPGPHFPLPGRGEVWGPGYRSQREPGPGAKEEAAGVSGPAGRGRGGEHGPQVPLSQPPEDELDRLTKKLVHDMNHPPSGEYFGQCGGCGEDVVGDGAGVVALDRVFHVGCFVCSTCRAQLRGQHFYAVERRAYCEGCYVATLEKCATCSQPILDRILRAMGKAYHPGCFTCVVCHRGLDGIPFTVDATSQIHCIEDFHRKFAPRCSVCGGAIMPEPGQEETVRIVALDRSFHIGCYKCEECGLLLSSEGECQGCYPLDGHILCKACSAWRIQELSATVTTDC

| effect of a mutation on the interaction | Variant |
| --- | --- |
| with no effect | R64W |
| with no effect | T83M |
| with no effect | S100G |
| with no effect | C272S |

Variants of: B8
Conditions: with maga4_human MAGEA4, P43358
Chain of maga4_human MAGEA4, P43358 (P43358 whole entry): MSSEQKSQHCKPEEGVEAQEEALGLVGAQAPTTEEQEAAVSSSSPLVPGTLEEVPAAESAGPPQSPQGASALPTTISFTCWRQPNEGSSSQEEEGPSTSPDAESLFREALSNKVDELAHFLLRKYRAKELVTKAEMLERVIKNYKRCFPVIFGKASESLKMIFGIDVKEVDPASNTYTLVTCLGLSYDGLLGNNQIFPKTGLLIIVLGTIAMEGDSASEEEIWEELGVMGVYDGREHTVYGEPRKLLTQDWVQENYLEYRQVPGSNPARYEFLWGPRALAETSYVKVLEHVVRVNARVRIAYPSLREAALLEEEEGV

| effect of a mutation on the interaction | Variant |
| --- | --- |
| with no effect | R64W |
| with no effect | T83M |
| with no effect | S100G |
| with no effect | C272S |

Variants of: B8
Conditions: with atg5_human ATG5, Q9H1Y0
Chain of atg5_human ATG5, Q9H1Y0 (Q9H1Y0 whole entry): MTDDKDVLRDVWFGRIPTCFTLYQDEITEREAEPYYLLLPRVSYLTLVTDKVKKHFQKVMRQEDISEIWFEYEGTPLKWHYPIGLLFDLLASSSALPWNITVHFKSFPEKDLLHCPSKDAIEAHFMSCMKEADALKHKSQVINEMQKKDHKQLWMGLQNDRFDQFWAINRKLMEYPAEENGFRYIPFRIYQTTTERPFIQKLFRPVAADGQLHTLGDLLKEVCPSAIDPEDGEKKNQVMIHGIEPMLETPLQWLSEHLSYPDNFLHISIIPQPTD

| effect of a mutation on the interaction | Variant |
| --- | --- |
| with no effect | S100G |

Reference: IntAct's records for PubMed 31515488
